This data set deals with T1, MBP-SelU (tRNA 2-selenouridine synthase) (Escherichia coli, UniProt P33667 1-364).
T1 sequence: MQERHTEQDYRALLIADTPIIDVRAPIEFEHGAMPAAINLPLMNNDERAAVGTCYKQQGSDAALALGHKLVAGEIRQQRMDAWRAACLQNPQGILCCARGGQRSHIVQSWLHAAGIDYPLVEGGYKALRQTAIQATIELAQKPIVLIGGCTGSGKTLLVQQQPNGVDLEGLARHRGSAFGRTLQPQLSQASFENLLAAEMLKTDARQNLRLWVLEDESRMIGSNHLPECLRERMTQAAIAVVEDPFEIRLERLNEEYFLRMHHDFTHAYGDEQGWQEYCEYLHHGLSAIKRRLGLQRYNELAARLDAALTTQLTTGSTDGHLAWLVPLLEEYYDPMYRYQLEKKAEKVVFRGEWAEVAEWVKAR
Kind of data set: MST (initial fluorescence); 10 mM Mg2+; MST: 2x assay buffer 20 mM Tricine pH 7.2, 20 mM MgCl2, 0.1% Tween-20 mixed with RNA (about 10 mM Tricine, 10 mM MgCl2, 0.05% Tween-20 final if 1:1); Cy3-RNA 50-75 nM; 30 min at room temperature, measured at 22 C. The settings on record: protein: recombinant, tags: N-terminal MBP (42 kDa, pMAL-c5x), label: 5'-Cy3, hairpin.

This note sets out measurements from PMC9105526, “Escherichia coli tRNA 2-Selenouridine Synthase (SelU): Elucidation of Substrate Specificity to Understand the Role of S-Geranyl-tRNA in the Conversion of 2-Thio- into 2-Selenouridines in Bacterial tRN”.

B1: Cy3-Se2U(34)-RNALys (structured_RNA)
RNA: GUUGACUUUUAAUCAAC
modifications: 2-selenouridine (Se2U) at nt 8 (tRNA position 34)
Usually Kd stands for the equilibrium constant for the complex coming apart. Regarding B1, the Kd (7-nt loop) turned out to be 27.1 ± 1.5 µM.

B2: Cy3-U(34)-RNALys (structured_RNA)
RNA: GUUGACUUUUAAUCAAC
In the case of B2, where the note is “7-nt loop CUUUUAA”, the Kd was found to be 25.5 ± 1.8 µM.

B3: Cy3-geS2U(34)-RNALys (structured_RNA)
RNA: GUUGACUUUUAAUCAAC
modifications: S-geranyl-2-thiouridine (geS2U) at nt 8 (tRNA position 34)
In the case of B3, the Kd (7-nt loop) is 3.95 ± 0.4 µM.

B4: Cy3-S2U(34)-RNALys (structured_RNA)
RNA: GUUGACUUUUAAUCAAC
modifications: 2-thiouridine (S2U) at nt 8 (tRNA position 34)
For the molecule B4, the Kd (7-nt loop) came out at 22.4 ± 1.6 µM.
